The values that follow come from article PMC4388636.

Experiment [1] has as its target toll like receptor-4 (human (endogenous in monocytes)) (UniProt O00206).
Experiment [2] has the same target. This is another data set of the same source.
The target is the same in experiment [3]. This is another data set of the same source.
For experiment [4] the target is unchanged. This is another data set of the same source.

UniProt O00206, sequence (O00206 24-839): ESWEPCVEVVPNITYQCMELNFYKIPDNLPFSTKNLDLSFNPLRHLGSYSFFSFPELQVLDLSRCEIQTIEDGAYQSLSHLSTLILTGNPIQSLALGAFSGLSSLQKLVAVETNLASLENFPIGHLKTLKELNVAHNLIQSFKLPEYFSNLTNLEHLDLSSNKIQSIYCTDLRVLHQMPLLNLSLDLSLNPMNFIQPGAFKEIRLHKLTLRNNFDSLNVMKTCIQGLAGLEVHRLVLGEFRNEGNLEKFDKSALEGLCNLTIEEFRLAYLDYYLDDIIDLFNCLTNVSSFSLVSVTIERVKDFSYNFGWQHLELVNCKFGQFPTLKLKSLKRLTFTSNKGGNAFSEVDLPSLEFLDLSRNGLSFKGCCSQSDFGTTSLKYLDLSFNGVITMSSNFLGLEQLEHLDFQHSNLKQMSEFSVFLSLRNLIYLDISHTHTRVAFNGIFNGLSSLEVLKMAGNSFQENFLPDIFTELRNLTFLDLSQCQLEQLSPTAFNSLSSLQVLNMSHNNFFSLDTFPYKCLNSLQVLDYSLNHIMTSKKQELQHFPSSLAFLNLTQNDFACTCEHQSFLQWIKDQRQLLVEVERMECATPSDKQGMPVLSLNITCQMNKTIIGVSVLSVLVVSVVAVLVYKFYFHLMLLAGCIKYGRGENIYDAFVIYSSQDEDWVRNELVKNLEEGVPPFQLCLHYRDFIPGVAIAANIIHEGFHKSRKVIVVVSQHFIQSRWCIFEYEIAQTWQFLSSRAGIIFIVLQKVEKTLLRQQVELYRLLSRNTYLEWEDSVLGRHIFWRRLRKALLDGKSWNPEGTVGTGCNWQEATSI

B1: recombinant Wolbachia heat shock protein 60 (natural protein)
chain: MTNVVVSGEQLQEAFREVAVMVDSTVAITAGPRGKTVGINKPYGAPEITKDGYKVMKGIKPEKPLHAAITSIFAQSCFQCNDKVGDGTTTCSILTSNMIMEALKSIAAGNDRVSIKNGMQKAKDAVLEGITSMSRTIPLEKMDEVAQVAIISANGDKDIGNSIADAVKKVGKEGVITVEESKGSKELEVELTTGMQFDRGYLSPYFITSNEKMIVEFDDPYLLITEKKLSIIQPLLPILEAVVKSGKPLLIIAEDIEGEALSTLVINKLRGGLKVTAVKAPGFGDRRKEMLEDIAALTGAKYVIKDELGIKMEDLTLEDLGTAKNVKVTKDNTTIVSGSSDSDRVKARVEQIKSQIETSTSDYDKEKLRERLAKLSGGVAVLKVGGVTEVEVKERRDRVEDALHATRAAIEEGIVPGGGVALLYASSALDKLKGGSDEEQIGINIIKKVLSAPIKRLVKNAGLESAVIIDHLTKQNDKELIYNVEAMNYANAFTAGVIDPAKVVRIAFETAISVASVLITTESMIVDVPNKEENASSSMGAGGMGGMNGF
As to B1, in experiment [1], the dead monocytes (annexin-V-FITC-/PI+) after 24 h with rWmhsp60 came out at 23%; the dead monocytes after rWmhsp60, with pretreatment by anti-TLR-4 monoclonal antibodies for 2 h was 6.5%; the late apoptotic monocytes (annexin-V-FITC+/PI+) after 24 h with rWmhsp60 was 18%; the late apoptotic monocytes after rWmhsp60, with pretreatment by anti-TLR-4 monoclonal antibodies for 2 h came out at 6%. In experiment [2], this molecule came in with a dead monocytes after rWmhsp60, with rapamycin treatment before the stimulation of 7.5% and a late apoptotic monocytes after rWmhsp60, with rapamycin treatment before the stimulation of 6.5%. In addition, in experiment [3], the SA-β-Gal–positive (senescent) monocytes after rWmhsp60 worked out at 78% and the SA-β-Gal–positive (senescent) monocytes after rWmhsp60, with rapamycin pretreatment was found to be 10%. In addition, in experiment [4], the ROS levels in monocytes after rWmhsp60, fluorimetry with DCF2-DA, fold change turned out to be 3 fold and the loss of mitochondrial membrane potential in monocytes after rWmhsp60, fluorimetry with TMRE, fold change turned out to be 3 fold.
